Assay results: US20260317443 (published 2026)

These binders were tested against human VWF (human) (assay: ELISA).
Chain of human VWF (human) (P04275 whole entry): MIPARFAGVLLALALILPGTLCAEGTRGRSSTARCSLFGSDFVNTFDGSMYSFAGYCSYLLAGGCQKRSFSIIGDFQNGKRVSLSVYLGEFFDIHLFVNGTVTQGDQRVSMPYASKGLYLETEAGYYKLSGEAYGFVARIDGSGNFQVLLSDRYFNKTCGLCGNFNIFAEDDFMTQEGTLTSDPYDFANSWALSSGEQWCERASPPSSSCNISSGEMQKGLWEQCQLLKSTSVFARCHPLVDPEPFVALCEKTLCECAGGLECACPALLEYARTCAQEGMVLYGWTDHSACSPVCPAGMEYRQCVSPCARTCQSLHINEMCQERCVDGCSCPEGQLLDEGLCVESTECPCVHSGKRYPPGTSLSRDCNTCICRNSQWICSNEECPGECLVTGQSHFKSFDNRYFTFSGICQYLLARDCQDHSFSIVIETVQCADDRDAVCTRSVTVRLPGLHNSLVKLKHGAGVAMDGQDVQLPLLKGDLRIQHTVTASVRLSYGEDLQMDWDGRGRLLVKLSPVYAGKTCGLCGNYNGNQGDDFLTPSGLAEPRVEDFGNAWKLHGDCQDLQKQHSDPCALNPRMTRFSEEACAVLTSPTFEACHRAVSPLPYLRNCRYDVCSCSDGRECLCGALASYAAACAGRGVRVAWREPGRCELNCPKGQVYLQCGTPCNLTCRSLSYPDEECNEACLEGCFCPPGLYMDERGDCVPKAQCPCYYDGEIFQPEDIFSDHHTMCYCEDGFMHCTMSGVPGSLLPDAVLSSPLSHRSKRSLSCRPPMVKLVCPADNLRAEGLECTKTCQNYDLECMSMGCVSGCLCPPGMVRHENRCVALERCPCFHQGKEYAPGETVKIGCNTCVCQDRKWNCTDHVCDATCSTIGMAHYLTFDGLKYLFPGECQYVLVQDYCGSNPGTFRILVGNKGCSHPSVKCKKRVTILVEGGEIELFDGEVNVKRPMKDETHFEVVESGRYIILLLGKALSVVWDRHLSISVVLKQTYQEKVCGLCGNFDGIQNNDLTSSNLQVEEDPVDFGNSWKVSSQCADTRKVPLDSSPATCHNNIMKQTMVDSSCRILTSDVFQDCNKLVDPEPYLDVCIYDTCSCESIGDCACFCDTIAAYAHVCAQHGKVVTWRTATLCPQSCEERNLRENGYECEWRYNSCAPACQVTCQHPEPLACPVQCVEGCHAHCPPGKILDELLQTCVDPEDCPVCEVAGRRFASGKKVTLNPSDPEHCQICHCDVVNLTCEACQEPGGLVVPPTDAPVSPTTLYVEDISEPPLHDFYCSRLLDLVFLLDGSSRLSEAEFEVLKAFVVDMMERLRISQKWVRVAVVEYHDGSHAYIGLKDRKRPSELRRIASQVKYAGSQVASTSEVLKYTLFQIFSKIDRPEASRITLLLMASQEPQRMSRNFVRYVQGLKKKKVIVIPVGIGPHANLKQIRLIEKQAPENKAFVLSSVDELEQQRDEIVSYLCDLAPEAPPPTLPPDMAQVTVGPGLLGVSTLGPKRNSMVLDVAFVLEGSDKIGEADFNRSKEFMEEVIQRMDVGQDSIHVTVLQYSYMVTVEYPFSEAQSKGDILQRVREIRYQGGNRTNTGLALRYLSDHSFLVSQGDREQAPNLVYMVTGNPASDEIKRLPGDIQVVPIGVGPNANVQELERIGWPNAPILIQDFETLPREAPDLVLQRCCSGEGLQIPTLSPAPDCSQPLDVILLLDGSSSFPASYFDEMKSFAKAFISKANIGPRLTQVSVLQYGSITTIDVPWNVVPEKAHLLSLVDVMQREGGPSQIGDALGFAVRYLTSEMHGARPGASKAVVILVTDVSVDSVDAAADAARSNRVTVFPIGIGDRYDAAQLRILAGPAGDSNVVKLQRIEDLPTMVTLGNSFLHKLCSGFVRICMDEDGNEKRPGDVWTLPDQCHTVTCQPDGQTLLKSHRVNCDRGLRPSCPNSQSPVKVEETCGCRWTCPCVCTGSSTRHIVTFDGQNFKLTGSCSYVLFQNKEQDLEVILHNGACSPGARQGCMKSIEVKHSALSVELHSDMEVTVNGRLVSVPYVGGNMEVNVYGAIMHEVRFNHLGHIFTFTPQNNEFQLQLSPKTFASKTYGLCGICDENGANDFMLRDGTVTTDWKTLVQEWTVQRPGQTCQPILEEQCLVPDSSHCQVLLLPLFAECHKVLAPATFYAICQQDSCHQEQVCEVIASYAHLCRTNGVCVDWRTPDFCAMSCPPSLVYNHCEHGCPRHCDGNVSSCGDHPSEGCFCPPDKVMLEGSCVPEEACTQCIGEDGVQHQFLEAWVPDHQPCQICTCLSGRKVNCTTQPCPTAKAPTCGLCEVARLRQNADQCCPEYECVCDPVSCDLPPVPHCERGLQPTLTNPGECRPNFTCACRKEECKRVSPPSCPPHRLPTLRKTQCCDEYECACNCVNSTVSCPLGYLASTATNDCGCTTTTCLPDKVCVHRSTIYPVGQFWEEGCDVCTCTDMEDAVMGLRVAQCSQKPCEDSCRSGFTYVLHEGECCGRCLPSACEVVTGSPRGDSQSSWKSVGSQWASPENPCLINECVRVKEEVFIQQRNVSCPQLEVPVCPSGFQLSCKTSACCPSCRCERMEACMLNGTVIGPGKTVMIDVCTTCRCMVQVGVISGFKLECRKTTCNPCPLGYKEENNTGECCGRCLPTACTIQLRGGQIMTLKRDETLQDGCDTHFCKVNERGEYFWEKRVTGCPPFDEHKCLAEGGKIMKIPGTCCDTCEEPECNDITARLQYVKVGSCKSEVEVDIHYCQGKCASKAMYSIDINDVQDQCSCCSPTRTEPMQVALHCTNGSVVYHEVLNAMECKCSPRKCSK

Binder	EC50
33D03_H3-L3 (antibody, V domains shown) VH: QVQLVQSGAEVKKPGASVKVSCKASGYTFTDYYLNWVRQAPGQRLEWMGIINPYNGGTNYSQKFQGRVTITVDKSSSTAYMELSSLRSEDTAVYYCASEGLRTWFTYWGQGTLVTVSS VL: DIVMTQSPDSLAVSLGERATINCKSSQSLSNSGNQKIYLAWYQQKPGQPPKLLIYGASSRESGVPDRFSGSGSEIDFTLTISSLQAEDVAVYYCQNDHSHPFTFGQGTKLEIK	0.0483 µg/mL
33D03_H1-L3 (antibody, V domains shown) VH: QVQLVQSGAEVKKPGASVKVSCKASGYTFTDYYLNWVRQAPGQRLEWMGIINPYNGGTNYSQKFQGRVTITRDTSASTAYMELSSLRSEDTAVYYCASEGLRTWFTYWGQGTLVTVSS VL: DIVMTQSPDSLAVSLGERATINCKSSQSLSNSGNQKIYLAWYQQKPGQPPKLLIYGASSRESGVPDRFSGSGSEIDFTLTISSLQAEDVAVYYCQNDHSHPFTFGQGTKLEIK	0.0597 µg/mL
33D03_H3-L2 (antibody, V domains shown) VH: QVQLVQSGAEVKKPGASVKVSCKASGYTFTDYYLNWVRQAPGQRLEWMGIINPYNGGTNYSQKFQGRVTITVDKSSSTAYMELSSLRSEDTAVYYCASEGLRTWFTYWGQGTLVTVSS VL: DIVMTQSPDSLAVSLGERATISCKSSQSLSNSGNQKIYLAWYQQKPGQPPKLLIYGASSRESGVPDRFSGSGSGTDFTLTISSLQAEDVAVYYCQNDHSHPFTFGQGTKLEIK	0.0457 µg/mL
33D03_H2-L1 (antibody, V domains shown) VH: QVQLVQSGAEVKKPGASVKVSCKASGYTFTDYYLNWVRQAPGQRLEWMGIINPYNGGTNYNQRFKGRVTITRDTSASTAYMELSSLRSEDTAVYYCASEGLRTWFTYWGQGTLVTVSS VL: DIVMTQSPDSLAVSLGERATINCKSSQSLSNSGNQKIYLAWYQQKPGQPPKLLIYGASSRESGVPDRFSGSGSGTDFTLTISSLQAEDVAVYYCQNDHSHPFTFGQGTKLEIK	0.0373 µg/mL
33D03_H4-L1 (antibody, V domains shown) VH: QVQLVQSGAEVKKPGASVKVSCKASGYTFTDYYLNWVRQAPGQRLEWMGIINPYNGGTNYNQRFKGRVTITVDKSSSTAYMELSSLRSEDTAVYYCASEGLRTWFTYWGQGTLVTVSS VL: DIVMTQSPDSLAVSLGERATINCKSSQSLSNSGNQKIYLAWYQQKPGQPPKLLIYGASSRESGVPDRFSGSGSGTDFTLTISSLQAEDVAVYYCQNDHSHPFTFGQGTKLEIK	0.0381 µg/mL
33D03_H4-L4 (antibody, V domains shown) VH: QVQLVQSGAEVKKPGASVKVSCKASGYTFTDYYLNWVRQAPGQRLEWMGIINPYNGGTNYNQRFKGRVTITVDKSSSTAYMELSSLRSEDTAVYYCASEGLRTWFTYWGQGTLVTVSS VL: DIVMTQSPDSLAVSLGERATISCKSSQSLSNSGNQKIYLAWYQQKPGQPPKLLIYGASSRESGVPDRFSGSGSEIDFTLTISSLQAEDVAVYYCQNDHSHPFTFGQGTKLEIK	0.0365 µg/mL
33D03_H2-L4 (antibody, V domains shown) VH: QVQLVQSGAEVKKPGASVKVSCKASGYTFTDYYLNWVRQAPGQRLEWMGIINPYNGGTNYNQRFKGRVTITRDTSASTAYMELSSLRSEDTAVYYCASEGLRTWFTYWGQGTLVTVSS VL: DIVMTQSPDSLAVSLGERATISCKSSQSLSNSGNQKIYLAWYQQKPGQPPKLLIYGASSRESGVPDRFSGSGSEIDFTLTISSLQAEDVAVYYCQNDHSHPFTFGQGTKLEIK	0.0381 µg/mL
33D03_H4-L3 (antibody, V domains shown) VH: QVQLVQSGAEVKKPGASVKVSCKASGYTFTDYYLNWVRQAPGQRLEWMGIINPYNGGTNYNQRFKGRVTITVDKSSSTAYMELSSLRSEDTAVYYCASEGLRTWFTYWGQGTLVTVSS VL: DIVMTQSPDSLAVSLGERATINCKSSQSLSNSGNQKIYLAWYQQKPGQPPKLLIYGASSRESGVPDRFSGSGSEIDFTLTISSLQAEDVAVYYCQNDHSHPFTFGQGTKLEIK	0.0371 µg/mL
33D03_H4-L2 (antibody, V domains shown) VH: QVQLVQSGAEVKKPGASVKVSCKASGYTFTDYYLNWVRQAPGQRLEWMGIINPYNGGTNYNQRFKGRVTITVDKSSSTAYMELSSLRSEDTAVYYCASEGLRTWFTYWGQGTLVTVSS VL: DIVMTQSPDSLAVSLGERATISCKSSQSLSNSGNQKIYLAWYQQKPGQPPKLLIYGASSRESGVPDRFSGSGSGTDFTLTISSLQAEDVAVYYCQNDHSHPFTFGQGTKLEIK	0.0354 µg/mL
33D03_H2-L2 (antibody, V domains shown) VH: QVQLVQSGAEVKKPGASVKVSCKASGYTFTDYYLNWVRQAPGQRLEWMGIINPYNGGTNYNQRFKGRVTITRDTSASTAYMELSSLRSEDTAVYYCASEGLRTWFTYWGQGTLVTVSS VL: DIVMTQSPDSLAVSLGERATISCKSSQSLSNSGNQKIYLAWYQQKPGQPPKLLIYGASSRESGVPDRFSGSGSGTDFTLTISSLQAEDVAVYYCQNDHSHPFTFGQGTKLEIK	0.0394 µg/mL
33D03_H2-L3 (antibody, V domains shown) VH: QVQLVQSGAEVKKPGASVKVSCKASGYTFTDYYLNWVRQAPGQRLEWMGIINPYNGGTNYNQRFKGRVTITRDTSASTAYMELSSLRSEDTAVYYCASEGLRTWFTYWGQGTLVTVSS VL: DIVMTQSPDSLAVSLGERATINCKSSQSLSNSGNQKIYLAWYQQKPGQPPKLLIYGASSRESGVPDRFSGSGSEIDFTLTISSLQAEDVAVYYCQNDHSHPFTFGQGTKLEIK	0.0371 µg/mL
33D03_par (antibody, V domains shown) VH: EVQLQQSRPVLVKPGASVKMSCKASGYTFTDYYLNWVKQSPGKRLEWIGIINPYNGGTNYNQRFKGKATLTVDKSSSTAYMELNSLTSEDSAVYFCASEGLRTWFTYWGQGTLVTVSA VL: DIVMTQSPSSLSVSAGEKVTMSCKSSQSLSNSGNQKIYLAWYQQKPGQPPKLLIYGASSRESGVPDRFTGSGSEIDFTLTISSVQAEDLAVYYCQNDHSHPFTFGSGTKLEIK	0.0498 µg/mL
25B05_H4-L2 (antibody, V domains shown) VH: EVQLVQSGAEVKKPGASVKVSCKASGYTFTDYFMNWVRQAPGQRLEWMGVINPHNGGTSYSQKFQGRVTLTVDKSSSTAYMELSSLRSEDTAVYYCARRPLGSDYWGQGTTVTVSS VL: DIVMTQSPSSVSASVGDRVTITCKASQNVGTAVAWYQQKPGKAPKLLIYSASSRYTGVPSRFSGSGSGTDFTLTISSLQPEDFATYYCQQYSSYPLTFGQGTKLEIK	0.0357 µg/mL
25B05_H2-L1 (antibody, V domains shown) VH: QVQLVQSGAEVKKPGASVKVSCKASGYTFTDYFMNWVRQAPGQRLEWMGVINPHNGGTSYSQKFQGRVTITVDKSSSTAYMELSSLRSEDTAVYYCARRPLGSDYWGQGTTVTVSS VL: DIQMTQSPSSVSASVGDRVTITCKASQNVGTAVAWYQQKPGKAPKLLIYSASSRYTGVPSRFSGSGSGTDFTLTISSLQPEDFATYYCQQYSSYPLTFGQGTKLEIK	0.0612 µg/mL
25B05_H3-L2 (antibody, V domains shown) VH: EVQLVQSGAEVKKPGASVKVSCKASGYTFTDYFMNWVRQAPGQRLEWMGVINPHNGGTSYSQKFQGRVTITVDKSSSTAYMELSSLRSEDTAVYYCARRPLGSDYWGQGTTVTVSS VL: DIVMTQSPSSVSASVGDRVTITCKASQNVGTAVAWYQQKPGKAPKLLIYSASSRYTGVPSRFSGSGSGTDFTLTISSLQPEDFATYYCQQYSSYPLTFGQGTKLEIK	0.0516 µg/mL
25B05_H2-L4 (antibody, V domains shown) VH: QVQLVQSGAEVKKPGASVKVSCKASGYTFTDYFMNWVRQAPGQRLEWMGVINPHNGGTSYSQKFQGRVTITVDKSSSTAYMELSSLRSEDTAVYYCARRPLGSDYWGQGTTVTVSS VL: DIVMTQSPSSVSASVGDRVTITCKASQNVGTAVAWYQQKPGKAPKLLIYSASSRYTEVPDRFSGSGSGTDFTLTISSLQPEDFATYYCQQYSSYPLTFGQGTKLEIK	0.0312 µg/mL
25B05_H2-L3 (antibody, V domains shown) VH: QVQLVQSGAEVKKPGASVKVSCKASGYTFTDYFMNWVRQAPGQRLEWMGVINPHNGGTSYSQKFQGRVTITVDKSSSTAYMELSSLRSEDTAVYYCARRPLGSDYWGQGTTVTVSS VL: DIQMTQSPSSVSASVGDRVTITCKASQNVGTAVAWYQQKPGKAPKLLIYSASSRYTEVPDRFSGSGSGTDFTLTISSLQPEDFATYYCQQYSSYPLTFGQGTKLEIK	0.0416 µg/mL
25B05_H1-L3 (antibody, V domains shown) VH: QVQLVQSGAEVKKPGASVKVSCKASGYTFTDYFMNWVRQAPGQRLEWMGVINPHNGGTSYSQKFQGRVTITRDTSASTAYMELSSLRSEDTAVYYCARRPLGSDYWGQGTTVTVSS VL: DIQMTQSPSSVSASVGDRVTITCKASQNVGTAVAWYQQKPGKAPKLLIYSASSRYTEVPDRFSGSGSGTDFTLTISSLQPEDFATYYCQQYSSYPLTFGQGTKLEIK	0.0335 µg/mL
25B05_H2-L2 (antibody, V domains shown) VH: QVQLVQSGAEVKKPGASVKVSCKASGYTFTDYFMNWVRQAPGQRLEWMGVINPHNGGTSYSQKFQGRVTITVDKSSSTAYMELSSLRSEDTAVYYCARRPLGSDYWGQGTTVTVSS VL: DIVMTQSPSSVSASVGDRVTITCKASQNVGTAVAWYQQKPGKAPKLLIYSASSRYTGVPSRFSGSGSGTDFTLTISSLQPEDFATYYCQQYSSYPLTFGQGTKLEIK	0.0564 µg/mL
25B05_H3-L1 (antibody, V domains shown) VH: EVQLVQSGAEVKKPGASVKVSCKASGYTFTDYFMNWVRQAPGQRLEWMGVINPHNGGTSYSQKFQGRVTITVDKSSSTAYMELSSLRSEDTAVYYCARRPLGSDYWGQGTTVTVSS VL: DIQMTQSPSSVSASVGDRVTITCKASQNVGTAVAWYQQKPGKAPKLLIYSASSRYTGVPSRFSGSGSGTDFTLTISSLQPEDFATYYCQQYSSYPLTFGQGTKLEIK	0.0594 µg/mL
25B05_H3-L4 (antibody, V domains shown) VH: EVQLVQSGAEVKKPGASVKVSCKASGYTFTDYFMNWVRQAPGQRLEWMGVINPHNGGTSYSQKFQGRVTITVDKSSSTAYMELSSLRSEDTAVYYCARRPLGSDYWGQGTTVTVSS VL: DIVMTQSPSSVSASVGDRVTITCKASQNVGTAVAWYQQKPGKAPKLLIYSASSRYTEVPDRFSGSGSGTDFTLTISSLQPEDFATYYCQQYSSYPLTFGQGTKLEIK	0.0379 µg/mL
25B05_H4-L3 (antibody, V domains shown) VH: EVQLVQSGAEVKKPGASVKVSCKASGYTFTDYFMNWVRQAPGQRLEWMGVINPHNGGTSYSQKFQGRVTLTVDKSSSTAYMELSSLRSEDTAVYYCARRPLGSDYWGQGTTVTVSS VL: DIQMTQSPSSVSASVGDRVTITCKASQNVGTAVAWYQQKPGKAPKLLIYSASSRYTEVPDRFSGSGSGTDFTLTISSLQPEDFATYYCQQYSSYPLTFGQGTKLEIK	0.0271 µg/mL
